Experimental data reported in US20250034273A1 (ARBELE, published 2025).

Legend:
[1] = biological target: T1, human Trop2 (human, UniProt P09758 27-274, limits assumed); assay: absorbance assay (Net absorbance, Abs 450) on 'Trop2-hFc'; one unprinted antibody concentration
T1 sequence (looked up): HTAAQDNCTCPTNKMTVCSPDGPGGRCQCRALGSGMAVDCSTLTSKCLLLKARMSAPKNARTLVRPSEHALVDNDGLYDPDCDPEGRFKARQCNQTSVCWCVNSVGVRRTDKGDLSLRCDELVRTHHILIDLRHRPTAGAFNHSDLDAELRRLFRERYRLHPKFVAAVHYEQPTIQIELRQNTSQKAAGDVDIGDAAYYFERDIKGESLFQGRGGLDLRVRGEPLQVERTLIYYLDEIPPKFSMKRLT

[2] = biological target: human CD3 (human); assay: Octet sensorgrams (nm against time), panel 'Human CD3', association to about 900 s, dissociation to 1800 s
human CD3 (human), sequence (chain, as listed by the source): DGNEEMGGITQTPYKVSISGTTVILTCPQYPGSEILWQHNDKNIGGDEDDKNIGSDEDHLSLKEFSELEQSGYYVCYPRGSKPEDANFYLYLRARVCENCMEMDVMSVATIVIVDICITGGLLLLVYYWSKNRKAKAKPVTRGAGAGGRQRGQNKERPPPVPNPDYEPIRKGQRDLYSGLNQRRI

[3] = biological target: T2, monkey CD3 (monkey); assay: Octet sensorgrams (nm against time), panel 'Cynomolgus CD3', association to about 900 s, dissociation to 1800 s
T2 chain: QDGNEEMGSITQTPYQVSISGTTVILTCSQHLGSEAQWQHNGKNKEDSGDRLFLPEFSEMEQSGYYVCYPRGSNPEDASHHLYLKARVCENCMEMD

[4] = biological target: T1, human Trop2; assay: Octet (BLI)
[5] = biological target: T3, Trop2 on cells (Trop2-positive SW480 cells; Trop2-expressing HEK293 cells) (UniProt P09758 27-323, limits assumed); assay: receptor occupancy (%) on Trop2-positive SW480 cells against ARB203 (nM)
T3 construct: whole, on cells
T3 sequence (looked up): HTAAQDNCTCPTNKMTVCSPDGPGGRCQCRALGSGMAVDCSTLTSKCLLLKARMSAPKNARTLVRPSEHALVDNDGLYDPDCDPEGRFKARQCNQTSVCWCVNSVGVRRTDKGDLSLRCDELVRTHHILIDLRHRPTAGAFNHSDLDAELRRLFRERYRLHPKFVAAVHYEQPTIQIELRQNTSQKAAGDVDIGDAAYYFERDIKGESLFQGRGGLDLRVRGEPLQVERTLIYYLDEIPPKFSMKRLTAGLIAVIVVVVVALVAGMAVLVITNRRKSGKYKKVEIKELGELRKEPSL

[6] = biological target: T3, Trop2 on cells (Trop2-positive SW480 …); assay: receptor occupancy (Percentage) on DLD1/DLD1-2C7 cancer cells against ARB203 (nM); Trop2 arm of ARB203
[7] = biological target: human CD3 (human); assay: receptor occupancy (Percentage) on PBMC against ARB203 (nM); the legend speaks of occupancy on T cells, the CD3 arm of ARB203
[8] = biological target: T4, PD1 expressed on HEK293F cells (UniProt Q15116 25-288, limits assumed); assay: flow cytometry binding, receptor occupancy (0 to 1) on HEK293F cells expressing PD1 against Antibody (nM)
T4 construct: whole, on cells; also called HEK293F expressing PD1; HKE293F expressing PD1
T4 sequence (Q15116 25-288 limits assumed): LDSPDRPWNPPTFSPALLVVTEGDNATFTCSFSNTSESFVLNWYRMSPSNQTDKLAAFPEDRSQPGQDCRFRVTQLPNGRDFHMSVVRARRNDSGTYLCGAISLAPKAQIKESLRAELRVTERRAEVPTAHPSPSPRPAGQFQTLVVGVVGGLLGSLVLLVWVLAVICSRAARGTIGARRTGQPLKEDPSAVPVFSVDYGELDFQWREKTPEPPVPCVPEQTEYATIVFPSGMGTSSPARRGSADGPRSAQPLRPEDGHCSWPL

B1: ARB203-h3G8 v1 (bispecific antibody)
heavy: EVQLVESGGGLVQPGGSLRLSCAASGFTFSTYTMSWVRQTPAKGLVWVSTINSDGYNIYYSDSMKGRFTISRDNAKYTLYLQMNSLRAEDTAMYYCARCSYYSYDYFDYWGQGTLVTVSSASTKGPSVFPLAPSSKSTSGGTAALGCLVKDYFPEPVTVSWNSGALTSGVHTFPAVLQSSGLYSLSSVVTVPSSSLGTQTYICNVNHKPSNTKVDKRVEPKSCDKTHTCPPCPAPELLGGPSVFLFPPKPKDTLMISRTPEVTCVVVDVSQEDPEVQFNWYVDGVEVHNAKTKPREEQFNSTYRVVSVLTVLHQDWLNGKEYKCKVSNKGLPSSIEKTISKAKGQPREPQVYTLPPSQEEMTKNQVSLTCLVKGFYPSDIAVEWESNGQPENNYKTTPPVLDSDGSFFLYSRLTVDKSRWQEGNVFSCSVMHEALHNHYTQKSLSLSLGKPAGGGGSQVQLVQSGAEVKKPGASVKVSCKASGYTFTSYYMHWVRQAPGQGLEWMGWIYPENVNTNYAQKFQGRVTMTRDTSISTAYMELSRLRSDDTAVYYCARDSYGSYFFDYWGQGTLVTVSSGGGGSGGGGSGGGGSDIVMTQSPDSLAVSLGERATINCKSSQSLLNSRTRKNYLAWYQQKPGQPPKLLIYWASTRESGVPDRFSGSGSGTDFTLTISSLQAEDVAVYYCTQSFILRTFGQGTKVEIK
light: DIQMTQSPSSLSASVGDRVTITCRASENIDNYLAWYQQKQGKVPKLLIYAATNLADGMPSRFSGSGSGTDFTLTISSLQPEDVATYYCQHYYSNQLTFGQGTKLEIKRTVAAPSVFIFPPSDEQLKSGTASVVCLLNNFYPREAKVQWKVDNALQSGNSQESVTEQDSKDSTYSLSSTLTLSKADYEKHKVYACEVTHQGLSSPVTKSFNRGEC
notes: also called h8B5-h3G8 V1; h8B5-h3G8v1
[1]
  binding result: binds

B2: h8B5-h3G8v2, bispecific anti-Trop2 (h8B5) / anti-CD3 (h3G8 scFv V2, VL-VH with 3xGS linker) (bispecific antibody, human IgG1, kappa)
heavy: EVQLVESGGGLVQPGGSLRLSCAASGFTFSTYTMSWVRQTPAKGLVWVSTINSDGYNIYYSDSMKGRFTISRDNAKYTLYLQMNSLRAEDTAMYYCARCSYYSYDYFDYWGQGTLVTVSSASTKGPSVFPLAPSSKSTSGGTAALGCLVKDYFPEPVTVSWNSGALTSGVHTFPAVLQSSGLYSLSSVVTVPSSSLGTQTYICNVNHKPSNTKVDKRVEPKSCDKTHTCPPCPAPELLGGPSVFLFPPKPKDTLMISRTPEVTCVVVDVSQEDPEVQFNWYVDGVEVHNAKTKPREEQFNSTYRVVSVLTVLHQDWLNGKEYKCKVSNKGLPSSIEKTISKAKGQPREPQVYTLPPSQEEMTKNQVSLTCLVKGFYPSDIAVEWESNGQPENNYKTTPPVLDSDGSFFLYSRLTVDKSRWQEGNVFSCSVMHEALHNHYTQKSLSLSLGKPAGGGGSDIVMTQSPDSLAVSLGERATINCKSSQSLLNSRTRKNYLAWYQQKPGQPPKLLIYWASTRESGVPDRFSGSGSGTDFTLTISSLQAEDVAVYYCTQSFILRTFGQGTKVEIKGGGGSGGGGSGGGGSQVQLVQSGAEVKKPGASVKVSCKASGYTFTSYYMHWVRQAPGQGLEWMGWIYPENVNTNYAQKFQGRVTMTRDTSISTAYMELSRLRSDDTAVYYCARDSYGSYFFDYWGQGTLVTVSS
light: B1 light
notes: IgG4 Fc with IgG1 hinge, scFv at the heavy chain C-terminus
[2]
  Kd: 3700 pM
[3]
  Kd: 802 pM

B3: ARB203, bispecific antibody of anti-Trop2 (h8B5) and anti-CD3 (UCHT1) (bispecific antibody, human IgG1, kappa)
heavy: EVQLVESGGGLVQPGGSLRLSCAASGFTFSTYTMSWVRQTPAKGLVWVSTINSDGYNIYYSDSMKGRFTISRDNAKYTLYLQMNSLRAEDTAMYYCARCSYYSYDYFDYWGQGTLVTVSSASTKGPSVFPLAPSSKSTSGGTAALGCLVKDYFPEPVTVSWNSGALTSGVHTFPAVLQSSGLYSLSSVVTVPSSSLGTQTYICNVNHKPSNTKVDKRVEPKSCDKTHTCPPCPAPELLGGPSVFLFPPKPKDTLMISRTPEVTCVVVDVSQEDPEVQFNWYVDGVEVHNAKTKPREEQFNSTYRVVSVLTVLHQDWLNGKEYKCKVSNKGLPSSIEKTISKAKGQPREPQVYTLPPSQEEMTKNQVSLTCLVKGFYPSDIAVEWESNGQPENNYKTTPPVLDSDGSFFLYSRLTVDKSRWQEGNVFSCSVMHEALHNHYTQKSLSLSLGKPAGGGGSEVQLVESGGGLVQPGGSLRLSCAASGYSFTGYTMNWVRQAPGKGLEWVALINPYKGVSTYNQKFKDRFTISVDKSKNTAYLQMNSLRAEDTAVYYCARSGYYGDSDWYFDVWGQGTLVTVSSGGGGSGGGGSGGGGSDIQMTQSPSSLSASVGDRVTITCRASQDIRNYLNWYQQKPGKAPKLLIYYTSRLESGVPSRFSGSGSGTDYTLTISSLQPEDFATYYCQQGNTLPWTFGQGTKVEIK
light: B1 light
notes: IgG4 Fc with IgG1 hinge; Bivalent Fab to Trop2 and bivalent scFv to CD3 at the heavy chain C-terminus
[4]
  Kd: ≤ 1 pM
[5]
  EC50: 155 pM
[6]
  EC50 (read off the curve): ~400 pM
[7]
  EC50: 20900 pM

B4: ARB204, CDH17-PD1 bispecific antibody (anti-CDH17 10C12 Fab, anti-PD1 1C8 scFv) (bispecific antibody, human IgG1, kappa)
heavy: EVQLVESGGGLVQPGGSLRLSCAASGFTFSSYAMSWVRQTPGKGLEWVAVIDSNGGSTYYPDTVKDRFTISRDNSKNTLYLQMNSLRAEDTAVYYCSSYTNLGAYWGQGTLVTVSAASTKGPSVFPLAPSSKSTSGGTAALGCLVKDYFPEPVTVSWNSGALTSGVHTFPAVLQSSGLYSLSSVVTVPSSSLGTQTYICNVNHKPSNTKVDKRVEPKSCDKTHTCPPCPAPELLGGPSVFLFPPKPKDTLMISRTPEVTCVVVDVSQEDPEVQFNWYVDGVEVHNAKTKPREEQFNSTYRVVSVLTVLHQDWLNGKEYKCKVSNKGLPSSIEKTISKAKGQPREPQVYTLPPSQEEMTKNQVSLTCLVKGFYPSDIAVEWESNGQPENNYKTTPPVLDSDGSFFLYSRLTVDKSRWQEGNVFSCSVMHEALHNHYTQKSLSLSLGKPAGGGGSEVQLVESGGGLVQPGGSLRLSCAASGFTFSRSTMSWVRQAPGKGLEWVATISGGGLNTYFPDSVKGRFTISRDNSKNTLYLQMNSLRAEDTAVYYCTRNSNSYYFALDYWGQGTLVTVSSGGGGSGGGGSGGGGSEIVLTQSPATLSLSPGERATLSCRASESVDNSGVSFMNWYQQKPGQAPRLLIYIASNQVSGIPARFSGSGSGTDFTLTISSLEPEDFAVYYCQQIKEVPWTFGGGTKVEIK
light: DIQMTQSPSSLSASVGDRVTITCRASQDISGYLNWLQQKPGGAIKRLIYTTSTLDSGVPKRFSGSGSGTDFTLTISSLQSEDFATYYCLQYASSPFTFGGGTKVEIKRTVAAPSVFIFPPSDEQLKSGTASVVCLLNNFYPREAKVQWKVDNALQSGNSQESVTEQDSKDSTYSLSSTLTLSKADYEKHKVYACEVTHQGLSSPVTKSFNRGEC
notes: IgG4 Fc with IgG1 hinge, bivalent to each target
[8]
  EC50: 217 pM
